# Experimental data from PMC314469, “Protein Interaction Networks by Proteome Peptide Scanning” (PLoS Biology, 2004).
# T1: amphyphisin SH3 (AMPH_HUMAN), P49418
# T1 chain: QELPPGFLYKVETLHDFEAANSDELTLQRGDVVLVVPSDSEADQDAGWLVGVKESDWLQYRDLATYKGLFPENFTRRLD
# Target: T1, amphyphisin SH3 (AMPH_HUMAN), P49418
# Assay: SPOT array
row,Binder,"normalised SPOT signal, Boehringer light units (BLU); mean over the file's lines of this peptide"
1,AQARLKRPLKSLDG [Q9NXU2 68-81],117
2,LWRRFGRPAKSSTP [Q9NS62 435-448],105
3,LTKVFFRPGKFAEF [Q9UM54 753-766],132
4,LTVTLQRPTKELHG [Q9Y2K7 133-146],94.9
5,LSSPLRRPWDQAQH [Q9P2W0 105-118],100
6,LVIRLPRPPKVLRL [Q9HC66 56-69],1960
7,LTIELRRPENEFWV [Q9NVH6 359-372],60
8,LTVAIRRPTDDSNQ [Q9Y2E4 454-467],29.3
9,LVIRPPRPPKVLRL [Q9H3C0 95-109],14800
10,LVPVPARPPLTRGQ [Q96EY9 124-138],2950
11,LYGLLQRPVRLALG [Q9BZJ7 289-302],1270
12,LTHVLSRPRRGSSG [Q9H6B9 44-57],2960
13,LYRFPGKPPTYVTD [Q9NU18 93-107],39
14,LVIRLRRPPLRYPR [Q9HAJ1 68-81],387
15,LVIRLRRPPLRSPR [Q9H8Y6 68-81],90.6
16,LVVDPRRPFRKLNA [Q9H4M9 114-127],2940
17,LYRGLSRPIRRTTQ [Q9H455 29-42],789
18,LYWLLRRPSGVVLS [Q96DN1 10-23],180
19,LVNTLKRPKRPPLR [Q9Y2E4 57-70],408
20,APRYLGRPKKEKTI [Q9C0B5 292-305],7.1
21,LVNGFLRPLRMAAS [Q9UK56 265-278],4910
22,LVSIPERPLRPPSE [Q9Y2W3 70-83],3540

# Other lines, results leading:
row,"normalised SPOT signal, Boehringer light units (BLU); mean over the file's lines of this peptide",Binder
1,55.4,LTPVPSKPPVTPAT [Q03112 565-579]
2,12400,LVIRPPRPPKVLGL [P39189 565-579]
3,1350,APVPLLRPHRPSGP [O15450 763-776]
4,70.3,LTSFLRRPFQSPTS [Q04637 602-615]
5,112,LVSRLRRPVSEVSG [Q96Q82 70-83]
6,41,LTLLFKRPFGTSDP [P09172 129-142]
7,23.5,LTVAIRRPPDLGGP [Q96NX2 418-431]
8,3170,LWRQPRRPIRIQQR [Q08493 32-45]
9,24,LTWLPPKPPTAFDG [Q16827 346-360]
10,2420,APRRPRRPRRPGPS [Q96QG0 341-354]
11,8.1,LTLNIRRPSPFDAG [Q14324 1104-1117]
12,42.9,LYLRLKRPKPERDL [P11230 356-369]
13,732,LVLEFLRPDRQGVT [Q14997 962-975]
14,60.8,LSQPPRRPWGNLTA [P22105 891-904]
15,142,LTSGPARPWKSVAL [Q01113 359-372]
16,482,LTLKPIRPRKYPNR [Q06889 251-264]
17,1260,LWPPLYRPRRDAFE [Q13635 1311-1324]
18,12100,LVNNFLRPLRMAAS [Q13972 262-275]
19,35.6,LTSGLRRPFGVAVM [Q14185 317-330]
20,46.1,LSPRPEKPPEEPGQ [O14687 279-293]

# Target: endophilin SH3 (SH3G2_HUMAN), Q99962
# Assay: SPOT array
row,Binder,"normalised SPOT signal, Boehringer light units (BLU); mean over the file's lines of this peptide"
1,AQARLKRPLKSLDG [Q9NXU2 68-81],109
2,LWRRFGRPAKSSTP [Q9NS62 435-448],114
3,LTKVFFRPGKFAEF [Q9UM54 753-766],199
4,LTVTLQRPTKELHG [Q9Y2K7 133-146],192
5,LSSPLRRPWDQAQH [Q9P2W0 105-118],280
6,LVIRLPRPPKVLRL [Q9HC66 56-69],2110
7,LTIELRRPENEFWV [Q9NVH6 359-372],52.4
8,LTVAIRRPTDDSNQ [Q9Y2E4 454-467],158
9,LVIRPPRPPKVLRL [Q9H3C0 95-109],19500
10,LVPVPARPPLTRGQ [Q96EY9 124-138],3430
11,LYGLLQRPVRLALG [Q9BZJ7 289-302],1110
12,LTHVLSRPRRGSSG [Q9H6B9 44-57],170
13,LYRFPGKPPTYVTD [Q9NU18 93-107],157
14,LVIRLRRPPLRYPR [Q9HAJ1 68-81],6210
15,LVIRLRRPPLRSPR [Q9H8Y6 68-81],12900
16,LVVDPRRPFRKLNA [Q9H4M9 114-127],179
17,LYRGLSRPIRRTTQ [Q9H455 29-42],234
18,LYWLLRRPSGVVLS [Q96DN1 10-23],158
19,LVNTLKRPKRPPLR [Q9Y2E4 57-70],48
20,APRYLGRPKKEKTI [Q9C0B5 292-305],69.5
21,LVNGFLRPLRMAAS [Q9UK56 265-278],176
22,LVSIPERPLRPPSE [Q9Y2W3 70-83],310

# Continued, values first:
row,"normalised SPOT signal, Boehringer light units (BLU); mean over the file's lines of this peptide",Binder
1,37,LTPVPSKPPVTPAT [Q03112 565-579]
2,20800,LVIRPPRPPKVLGL [P39189 565-579]
3,704,APVPLLRPHRPSGP [O15450 763-776]
4,1560,LTSFLRRPFQSPTS [Q04637 602-615]
5,96.8,LVSRLRRPVSEVSG [Q96Q82 70-83]
6,44.1,LTLLFKRPFGTSDP [P09172 129-142]
7,17.9,LTVAIRRPPDLGGP [Q96NX2 418-431]
8,1000,LWRQPRRPIRIQQR [Q08493 32-45]
9,71.7,LTWLPPKPPTAFDG [Q16827 346-360]
10,1500,APRRPRRPRRPGPS [Q96QG0 341-354]
11,159,LTLNIRRPSPFDAG [Q14324 1104-1117]
12,70.6,LYLRLKRPKPERDL [P11230 356-369]
13,49.7,LVLEFLRPDRQGVT [Q14997 962-975]
14,154,LSQPPRRPWGNLTA [P22105 891-904]
15,428,LTSGPARPWKSVAL [Q01113 359-372]
16,102,LTLKPIRPRKYPNR [Q06889 251-264]
17,3920,LWPPLYRPRRDAFE [Q13635 1311-1324]
18,1250,LVNNFLRPLRMAAS [Q13972 262-275]
19,43,LTSGLRRPFGVAVM [Q14185 317-330]
20,39.8,LSPRPEKPPEEPGQ [O14687 279-293]
